Target: the molecule itself
Test: crystal structure; reduced form, 1.90 Å, space group C2; five subunits in the asymmetric unit (two dimers and a monomer), decamer (pentamer of dimers) by crystal symmetry; crystals at 16°C, 10% PEG MME 5,000, 0.1 M HEPES-NaOH pH 8.0, with 14 mM β-mercaptoethanol and 10 mM DTT

B1: Pseudosciaena crocea peroxiredoxin 4 (Prx4), mature protein without the 29-residue signal peptide (enzyme)
chain: EEAAHVKNSQCHNYAGGHVYPGEAFRVPVSDHSLHLSKAKISKPAPQWEGTAVINGEFKELKLSDYRGKYLVFFFYPLDFTFVCPTEIIAFSDRVHEFRAINTEVVACSVDSQFTHLAWIITPRKQGGLGPMKIPLLSDLTHQISKDYGVYLEDQGHTLRGLFIIDEKGVLRQITMNDLPVGRSVDETLRLVQAFQYTDKHGEVCPAGWKPGSDTIIPDPSGKLKYFDKMK
  stoichiometry N: 10
